Experimental data from patent publication EP4509523A1 (Deutsches Primatenzentrum GmbH (DPZ), dated 2025).

Target: T1, D2-KIR3DL2-IgG1-Fc (human, UniProt P43630 220-316, limits assumed)
T1 construct: domain: D2; also called D2 domain of KIR3DL2 as IgG1-Fc protein
Assay: flow cytometry on HEK-293 cells expressing FLAG-KIR3DX1rep, anti-IgG-Fc detection (Fig. 4C)

T1 sequence (P43630 other isoform, or with tags, fused parts or gaps limits assumed): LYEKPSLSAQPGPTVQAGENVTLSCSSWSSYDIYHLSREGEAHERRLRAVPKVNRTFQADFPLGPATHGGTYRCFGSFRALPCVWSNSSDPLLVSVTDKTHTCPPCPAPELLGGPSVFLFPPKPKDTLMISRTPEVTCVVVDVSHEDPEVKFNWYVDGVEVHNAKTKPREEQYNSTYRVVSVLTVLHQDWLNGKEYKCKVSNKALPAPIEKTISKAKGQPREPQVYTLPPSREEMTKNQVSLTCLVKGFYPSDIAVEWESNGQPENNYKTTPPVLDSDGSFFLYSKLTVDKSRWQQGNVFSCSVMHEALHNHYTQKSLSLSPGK

- binding result: no binding
B1: FLAG-KIR3DX1rep (receptor)
chain: QKICPHAGAQDKFSLSAWPSPVVPLGGRVTLSCHSHLRFVIWTIFQTTGTRSHELHTGLSNNITISPVTPEHAGTYRCVGIYKHASKWSAESNSLKIIVTGLFTKPSISAHPSSLVHAGARVSLRCHSELAFDEFILYKEGHIQHSQQLDQGMEAGIHYVEAVFSMGPVTPAHAGAYRCCGCFSHSRYEWSAPSDPLDIVITGKYKKPSLSTQVDPMMRLGEKLTLFCSSEISFDQYHLFRHGVAHGQWLSGGQRHREAFQANFSVGRATPVPGGTYRCYGSFNDSPYEWSAPSDPLQLYTTGNTKSTPLSFTESTPESDTPRPQGQSSNLHMLTGLSVAIISIGVCLSAFIGFWCYIKYHTTMANTEPTEGQRTDEEEPAAEETQEIIYAQLNHQALSQTGFPPASQCPHYLSEDPSIYITVHQAQAEARAAPSLWHKGHPR
notes: also called FLAG-tagged full-length KIR3DX1-repaired; full-length KIR3DX1 in its repaired form as cell surface receptor
